# Measurements from patent publication US9914914B2, “Polymerase capable of producing non-DNA nucleotide polymers” (Medical Research Council, priority 2012, dated 2018).
# Substitutions are numbered along the chain they refer to. Names and notes keep the numbering of the source. “Also recorded” adds a separate entry of the source.
# B1: Dpo4: commercial DNA polymerase (protein, UniProt Q97W02 1-352, looked up)
# DNA polymerase IV: MIVLFVDFDYFYAQVEEVLNPSLKGKPVVVCVFSGRFEDSGAVATANYEARKFGVKAGIPIVEAKKILPNAVYLPMRKEVYQQVSSRIMNLLREYSEKIEIASIDEAYLDISDKVRDYREAYNLGLEIKNKILEKEKITVTVGISKNKVFAKIAADMAKPNGIKVIDDEEVKRLIRELDIADVPGIGNITAEKLKKLGINKLVDTLSIEFDKLKGMIGEAKAKYLISLARDEYNEPIRTRVRKSIGRIVTMKRNSRNLEEIKPYLFRAIEESYYKLDKRIPKAIHVVAVTEDLDIVSRGRTFPHGISKETAYSESVKLLQKILEEDERKIRRIGVRFSKFIEAIGLDKFFDT
# B2: D4K: Tgo polymerase with V93Q, D141A, E143A, L403P, A485L, P657T, E658Q, K659H, Y663H, E664K, D669A, K671N, T676I; SEQ ID NO:5 (protein)
# chain: MILDTDYITEDGKPVIRIFKKENGEFKIDYDRNFEPYIYALLKDDSAIEDVKKITAERHGTTVRVVRAEKVKKKFLGRPIEVWKLYFTHPQDQPAIRDKIKEHPAVVDIYEYDIPFAKRYLIDKGLIPMEGDEELKMLAFAIATLYHEGEEFAEGPILMISYADEEGARVITWKNIDLPYVDVVSTEKEMIKRFLKVVKEKDPDVLITYNGDNFDFAYLKKRSEKLGVKFILGREGSEPKIQRMGDRFAVEVKGRIHFDLYPVIRRTINLPTYTLEAVYEAIFGQPKEKVYAEEIAQAWETGEGLERVARYSMEDAKVTYELGKEFFPMEAQLSRLVGQSLWDVSRSSTGNLVEWFLLRKAYERNELAPNKPDERELARRRESYAGGYVKEPERGLWENIVYPDFRSLYPSIIITHNVSPDTLNREGCEEYDVAPQVGHKFCKDFPGFIPSLLGDLLEERQKVKKKMKATIDPIEKKLLDYRQRLIKILANSFYGYYGYAKARWYCKECAESVTAWGRQYIETTIREIEEKFGFKVLYADTDGFFATIPGADAETVKKKAKEFLDYINAKLPGLLELEYEGFYKRGFFVTKKKYAVIDEEDKITTRGLEIVRRDWSEIAKETQARVLEAILKHGDVEEAVRIVKEVTEKLSKYEVPTQHLVIHKQITRALNDYKAIGPHVAVAKRLAARGIKIRPGTVISYIVLKGSGRIGDRAIPFDEFDPAKHKYDAEYYIENQVLPAVERILRAFGYRKEDLRYQKTRQVGLGAWLKPKT
# modifications: Polymerase D4YK derived from T. gorgonarius
# B3: D4K521: D4K with the further mutation I521L, SEQ ID NO:7 (protein)
# chain: B2 chain with I521L
# modifications: Mutant polymerase D4YK with I521L mutation, derived from T. gorgonarius
# B4: D4: prior art TgoT-derived RNA polymerase with E664Q, SEQ ID NO:3 (protein)
# chain: B2 chain with P403L, K664Q
# modifications: Prior art T. gorgonarius (Tgo) derived polymerase D4 with mutated patch 10 region
# B5: Therminator: 9° N exo−: A485L polymerase, commercial (protein, listed as Thermococcus gorgonarius)
# chain: MILDTDYITEDGKPVIRIFKKENGEFKIDYDRNFEPYIYALLKDDSAIEDVKKITAERHGTTVRVVRAEKVKKKFLGRPIEVWKLYFTHPQDVPAIRDKIKEHPAVVDIYEYDIPFAKRYLIDKGLIPMEGDEELKMLAFDIETLYHEGEEFAEGPILMISYADEEGARVITWKNIDLPYVDVVSTEKEMIKRFLKVVKEKDPDVLITYNGDNFDFAYLKKRSEKLGVKFILGREGSEPKIQRMGDRFAVEVKGRIHFDLYPVIRRTINLPTYTLEAVYEAIFGQPKEKVYAEEIAQAWETGEGLERVARYSMEDAKVTYELGKEFFPMEAQLSRLVGQSLWDVSRSSTGNLVEWFLLRKAYERNELAPNKPDERELARRRESYAGGYVKEPERGLWENIVYLDFRSLYPSIIITHNVSPDTLNREGCEEYDVAPQVGHKFCKDFPGFIPSLLGDLLEERQKVKKKMKATIDPIEKKLLDYRQRLIKILANSFYGYYGYAKARWYCKECAESVTAWGRQYIETTIREIEEKFGFKVLYADTDGFFATIPGADAETVKKKAKEFLDYINAKLPGLLELEYEGFYKRGFFVTKKKYAVIDEEDKITTRGLEIVRRDWSEIAKETQARVLEAILKHGDVEEAVRIVKEVTEKLSKYEVPPEKLVIYEQITRDLKDYKATGPHVAVAKRLAARGIKIRPGTVISYIVLKGSGRIGDRAIPFDEFDPAKHKYDAEYYIENQVLPAVERILRAFGYRKEDLRYQKTRQVGLGAWLKPKT
# B6: RT-521: Tgo V93Q, D141A, E143A, A485L, I521L, K726R, E429G; SEQ ID NO:12 (protein)
# chain: B5 chain with V93Q, D141A, E143A, E429G, I521L, K726R
# modifications: T. go derived RT-521 polymerase
# B7: RT-521K: Tgo V93Q, D141A, E143A, A485L, I521L, E664K, K726R, A385V; SEQ ID NO:14 (protein)
# chain: B5 chain with V93Q, D141A, E143A, A385V, E429G, F445L, I521L, E664K, K726R
# modifications: T. go derived polymerase designated RT-521K
# Columns and labels:
# Ramos = experiment: IC50 of nucleoside drugs and TempN polymer on Ramos cells; type: cell-based; details: Homo sapiens
# Method: The polymer linked to the targeting protein was then mixed with Nanocargo transfection reagent according to the manufacturer's instructions (Tecrea, UK), and added to Ramos cells at a final concentration of 40 nM (polymer concentration). After 96 hours incubation in a humidified atmosphere at 37° C. (5% CO2), WST-1 reagent (Roche, UK) was added to the cells to measure cell growth inhibition (FIG. 42). […] Only when the toxic polymer is targeted to the Ramos cells via CD20 is cell growth inhibited.
# CCRF-CEM = experiment: IC50 of nucleoside drugs and TempN polymer on CCRF-CEM cells; type: cell-based; details: Homo sapiens
# FANA template = experiment: FANA reverse transcriptase screen (PCR from cDNA); type: biochemical; details: judged by PCR from the cDNA
# Method: ANA and FANA were synthesised using D4YK from DNA primers against a biotinylated template. This was captured onto streptavidin-coated paramagnetic beads and the nascent ANA or FANA strand eluted using two washes in 30 mM NaOH. The single stranded products were neutralised, ethanol precipitated and used as a template to screen a panel of commercial polymerases as well as in-house engineered polymerases for RT activity.
# We have learnt that RT-521 must be removed before PCR as even low concentrations of RT-521 inhibit PCR. In this case, the reverse transcription reactions were purified by Exol (NEB) treatment to remove unextended primers and 0.05 volumes (1 μl out of 20 μl reaction) were used as template for 20 μl PCR with FastStart Taq (Roche). If the reactions had been purified by a method which removed RT-521 (e.g. silica column or phenol:chloroform extraction) the PCR for the RT-521 reaction would have been expected to be positive, as observed in other experiments (FIG. 19).
# [1] = system: arabinosyl-NTPs, DNA template; experiment: Polymerase dilution experiment, ANA synthesis, D4 vs D4K; type: biochemical
# Method: In this experiment, the concentration of buffer (1× Thermopol (NEB) buffer), arabinosyl-NTPs (0.25 mM each), primer (200 nM), template (400 nM), the reaction volume ([…]) and extension conditions (1 min 94° C., 30 sec 50° C., 2 min 65° C.) were held constant.
# [2] = system: arabinosyl-NTPs, DNA template; experiment: Polymerase dilution experiment, ANA synthesis, D4K vs D4K521; type: biochemical; details: for polymerase concentration at which full-length (+57 nt) ANA product is present: 0.125 mM each arabinosyl-NTP, 1 min 94° C., 30 sec 50° C., 2 min 65° C.
# Method: In this experiment, the concentration of buffer (1× Thermopol (NEB) buffer), arabinosyl-NTPs (0.125 mM each), primer (200 nM), template (400 nM), the reaction volume ([…]) and extension conditions (1 min 94° C., 30 sec 50° C., 2 min 65° C.) were held constant.
# faNTP, DNA template = experiment: FANA synthesis by D4YK; type: biochemical
# Method: (a) FANA synthesis at reduced faNTP concentrations. […] (b) Timecourse of YtRtemp8 (encoding 98 nt incorporations) synthesis by D4YK, showing substantial full-length synthesis in only 5 min. (c) Timecourse of ApLib5 (encoding 78 nt incorporations, of which 40 are random nucleotides) synthesis by D4YK, again showing substantial full length product in only 5 min.
# Not only is FANA synthesis effective at relatively low FANA-NTP (faNTP) concentrations (less than 50 μM each, compared to 250 μM each for ANA synthesis) but synthesis of both a […] incorporation tRNA and an N40 library is efficient in less than 5 minutes (FIG. 15). This rapid synthesis and toleration of a wide range of substrate concentrations is indicative of an efficient polymerase, but neither single incorporation kinetics nor processivity have been investigated for D4YK.
Molecule,IC50 (Ramos) [nM],IC50 (CCRF-CEM) [nM],FANA RT activity (FANA template),other results
"Nc1ccn([C@@H]2O[C@H](CO)C(O)C2O)c(=O)n1 (stereo partly drawn) [AraC, 9-beta-D-arabinofuranosyl-cytidine]",22.7,12.9,–,–
"Nc1nc2c(ncn2[C@@H]2O[C@H](CO)C(O)C2O)c(=O)[nH]1 (stereo partly drawn) [AraG, 9-beta-D-arabinofuranosyl-guanosine]",~100000,884,–,–
"Nc1nc(Cl)nc2c1ncn2[C@@H]1O[C@H](CO)[C@@H](O)[C@@H]1F [Clofarabine, 9-beta-D-fluoroarabinosyl-2′chloroadenosine]",18,20,–,–
"Nc1nc(F)nc2c1ncn2[C@@H]1O[C@H](CO)[C@@H](O)[C@@H]1O [Fludarabine, 9-beta-D-arabinofuranosyl-2′fluoroadenosine]",1300,864,–,–
"Nc1ccn([C@@H]2O[C@H](CO)C(O)C2(F)F)c(=O)n1 (some centres unmarked) [GemC, 2′2′-difluorodeoxycytidine]",1.6,11.7,–,–
B1,–,–,weak RT activity,–
B2,–,–,–,"polymerase concentration at which full-length (+57 nt) ANA product is present ([1]; 0.25 mM each arabinosyl-NTP, 1 min 94° C., 30 sec 50° C., 2 min 65° C.): 18.8 nM; polymerase concentration for full-length ANA product relative to D4 ([1]; fraction of the concentration required for D4): less than 1/15; polymerase concentration at which full-length (+57 nt) ANA product is present [2]: 18.8 nM; time for efficient FANA synthesis (faNTP, DNA template; 97 nt incorporation tRNA and N40 library): less than 5 minutes; time to substantial full-length FANA product (faNTP, DNA template; ApLib5 (78 nt incorporations, 40 random)): 5 min; time to substantial full-length FANA synthesis (faNTP, DNA template; YtRtemp8 (98 nt incorporations)): 5 min; faNTP concentration down to which FANA synthesis remains robust (faNTP, DNA template; YtRtemp9 (93 nt incorporations), each faNTP): ≥ 31.2 µM; FANA-NTP concentration at which FANA synthesis is effective (faNTP, DNA template; each faNTP, compared to 250 μM each for ANA synthesis): less than 50 μM"
B3,–,–,–,polymerase concentration at which full-length (+57 nt) ANA product is present [2]: 2.3 nM; polymerase concentration for full-length ANA product relative to D4K ([2]; fraction of the concentration required for D4K): less than 1/8
B4,–,–,–,"full-length (+57 nt) ANA product at 75 nM polymerase ([1]; 75 nM polymerase, 0.25 mM each arabinosyl-NTP): no full-length product; full-length (+57 nt) ANA product at 300 nM polymerase ([1]; 300 nM polymerase, 0.25 mM each arabinosyl-NTP): very little full-length"
B5,–,–,weak FANA RT activity,–
B6,–,–,does have FANA RT activity; also recorded: effective FANA reverse transcriptase,–
B7,–,–,robust FANA RT activity,–
